From patent US20250223354A1 (BIOTHEUS, published 2025)

T1: human TIGIT expressed on cells (human, UniProt Q495A1 22-244)
T1 construct: whole, on cells; cDNA encoding human TIGIT in pCHO1.0 for CHO cells; also called CHO-huTIGIT cells
T1 sequence (looked up): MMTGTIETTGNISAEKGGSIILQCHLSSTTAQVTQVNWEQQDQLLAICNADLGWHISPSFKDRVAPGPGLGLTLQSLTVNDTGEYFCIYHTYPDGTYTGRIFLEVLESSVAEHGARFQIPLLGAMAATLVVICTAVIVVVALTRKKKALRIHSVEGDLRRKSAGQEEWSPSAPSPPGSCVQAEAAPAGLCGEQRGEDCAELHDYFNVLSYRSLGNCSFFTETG

T2: human TIGIT-his protein (human, UniProt Q495A1 22-141)
T2 construct: not shown: his tag
T2 sequence: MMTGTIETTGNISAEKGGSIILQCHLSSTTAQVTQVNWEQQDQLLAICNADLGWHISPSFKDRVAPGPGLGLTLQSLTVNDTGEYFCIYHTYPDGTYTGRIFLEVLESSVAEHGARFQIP

T3: mouse TIGIT overexpressed on CHO cells (mouse, UniProt P86176 29-249)
T3 construct: whole, on cells; also called CHO-muTIGIT cells
T3 sequence (looked up): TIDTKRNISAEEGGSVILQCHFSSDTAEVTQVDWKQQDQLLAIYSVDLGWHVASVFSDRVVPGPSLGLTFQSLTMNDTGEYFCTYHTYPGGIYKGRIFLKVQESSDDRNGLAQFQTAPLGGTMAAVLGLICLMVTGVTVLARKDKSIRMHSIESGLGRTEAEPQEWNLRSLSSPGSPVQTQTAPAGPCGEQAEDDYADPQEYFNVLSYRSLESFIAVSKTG

T4: mouse TIGIT-his protein (mouse, UniProt P86176 29-148)
T4 construct: not shown: his tag
T4 sequence: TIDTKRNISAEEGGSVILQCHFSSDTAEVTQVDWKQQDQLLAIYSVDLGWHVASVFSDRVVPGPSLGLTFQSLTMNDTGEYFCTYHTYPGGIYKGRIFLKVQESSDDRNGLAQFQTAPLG


Key:
[1] = molecular target: T1, human TIGIT expressed on cells; experiment: flow cytometry blocking assay: binding of human CD155 protein with mouse IgG2a Fc tag to CHO cells overexpressing human TIGIT, median fluorescence intensity APC-A; unit from the concentration axis
Procedure: (§1) Specifically, the CHO-huTIGIT cells were expanded and adjusted to a cell density of 2×10⁶ cells/mL, added to a 96-well flow plate at 100 μL/well, and centrifuged for later use. The purified monoclonal antibodies were diluted 3-fold with PBS starting at 400 nM for a total of 12 concentration gradients. The diluted sample was added at 60 μL/well to the cells-carrying 96-well flow plate, and incubated at 4° C. for 30 minutes. […] APC-conjugated goat anti-mouse IgG antibody diluted 100-fold with PBS was added at 100 μL/well, incubated at 4° C. for 30 minutes, and washed twice with PBS. Cells were resuspended with PBS at 100 μL/well, and detected on a CytoFlex flow cytometer, and the corresponding MFI was calculated.

[2] = molecular target: T1, human TIGIT expressed on cells; experiment: flow cytometry on CHO cells overexpressing human TIGIT, median fluorescence intensity PE-A; unit from the concentration axis
Excerpt: (§2) Specifically, CHO cells overexpressing human TIGIT (CHO-huTIGIT cells), CHO cells overexpressing cynomolgus TIGIT (CHO-cynoTIGIT cells) and CHO cells overexpressing mouse TIGIT (CHO-muTIGIT cells) were generated by transfection of the pCHO1.0 vector (purchased from Invitrogen) with cDNA encoding human TIGIT, cynomolgus TIGIT and mouse TIGIT cloned into the multiple cloning site (MCS), respectively, followed by pressure screening. The overexpressing cells were expanded and adjusted to an appropriate cell density, and added to a 96-well flow cytometry plate. After centrifugation, the cells were added with a gradiently diluted sample to be tested, and incubated at 4° C. for 30 minutes. The cells were washed twice with PBS, and added with a fluorescent secondary antibody correspondingly diluted to an appropriate concentration, then incubated at 4° C. for 30 minutes, and washed twice with PBS. Cells were resuspended with PBS, and detected on a CytoFlex flow cytometer, and the corresponding MFI was calculated. Graphpad software was used for graphical analysis to obtain EC₅₀ values.

human TIGIT-his protein [3] = molecular target: T2, human TIGIT-his protein; experiment: BLI (ForteBio), IgG on AHQ sensor, 100 nM TIGIT-his, monovalent, 1:1 model
Procedure: (§3) Biofilm layer optical interference technology (ForteBio) was used to determine the binding and dissociation […] values of the anti-TIGIT monoclonal antibodies obtained in Example 1 to human, cynomolgus monkey and mouse TIGIT. Fortebio affinity measurements were performed according to existing methods (Este, P et al., High throughput solution-based measurement of antibody-antigen affinity and epitope binning. Mabs, 2013.5(2): p 270-8).
(§4) The antibody-loaded sensor was incubated in 100 nM TIGIT-his antigen to the plateau phase, and then the sensor was transferred to an analysis buffer and incubated for at least 2 minutes for measuring dissociation rate. The kinetic analysis was performed using a 1:1 binding model.

[4] = molecular target: T5, cynomolgus monkey TIGIT-his protein (cynomolgus monkey); experiment: as above
T5 construct: also called Cynomolgus TIGIT-his; not shown: his tag
Procedure: as §3, §4

[5] = molecular target: T1, human TIGIT expressed on cells; experiment: flow cytometry, competition with human CD155-mouse IgG2a Fc (2 ug/mL) on CHO-huTIGIT cells
Procedure: as §1

[6] = molecular target: T6, cynomolgus TIGIT overexpressed on CHO cells (cynomolgus, UniProt A0A7N9I9V4 89-312); experiment: flow cytometry on CHO cells overexpressing cynomolgus TIGIT, median fluorescence intensity PE-A; unit from the concentration axis
T6 construct: whole, on cells; also called CHO-cynoTIGIT cells
Excerpt: as §2

[7] = molecular target: T3, mouse TIGIT overexpressed on CHO cells; experiment: flow cytometry, CHO-muTIGIT cells
Excerpt: as §2

[8] = molecular target: T1, human TIGIT expressed on cells; experiment: flow cytometry, CHO-huTIGIT cells
Excerpt: as §2

[9] = molecular target: T6, cynomolgus TIGIT overexpressed on CHO …; experiment: flow cytometry, CHO-cynoTIGIT cells
Excerpt: as §2

mouse TIGIT-his protein = molecular target: T4, mouse TIGIT-his protein; experiment: BLI (ForteBio), IgG on AHQ sensor, monovalent
Procedure: as §4

[10] = molecular target: T1, human TIGIT expressed on cells; experiment: flow cytometry on activated human primary T cells (TIGIT), readout positive cell (%); unit from the concentration axis
Excerpt: The binding activity of the anti-TIGIT antibody of the present invention to TIGIT on the surface of activated T cells was detected based on the flow cytometry detection method.
Specifically, human PBMC were sorted according to the experimental protocol provided by […] Company (stemcell, Cat. No.: #17951C) to obtain human total T cells. […] The activated T cells were adjusted to an appropriate cell density and added to a 96-well flow cytometry plate. After centrifugation, the gradiently diluted sample to be tested was added, and incubated at 4° C. for 30 minutes. Washing was carried out twice with PBS, and a fluorescent secondary antibody diluted to an appropriate concentration was added, incubated at 4° C. for 30 minutes, and washed twice with PBS. […]

[11] = molecular target: T6, cynomolgus TIGIT overexpressed on CHO …; experiment: flow cytometry, CHO-cynoTIGIT cells; remark: listed apart in the source
Excerpt: as §2, with “(CHO-huTIGITcells),” for “(CHO-huTIGIT cells),”

human TIGIT-his protein [12] = molecular target: T2, human TIGIT-his protein; experiment: BLI (ForteBio), antibody on AHQ sensor, 100 nM antigen, monovalent, 1:1 model
Procedure: (§5) The antibody-loaded sensor was incubated in 100 nM target antigen to the plateau phase, and then the sensor was transferred to an analysis buffer and incubated for at least 2 minutes for measuring dissociation rate. The kinetic analysis was performed using a 1:1 binding model.

[13] = molecular target: T5, cynomolgus monkey TIGIT-his protein; experiment: as above
Procedure: as §5

[14] = molecular target: T3, mouse TIGIT overexpressed on CHO cells; experiment: flow cytometry, competition with mouse CD155-mouse IgG2a Fc (2 ug/mL) on CHO-muTIGIT cells
Procedure: as §1, with “The CHO-muTIGIT” for “Specifically, the CHO-huTIGIT”, “antibody was” for “monoclonal antibodies were”, “calculated. Graphpad software was used for graphing analysis to obtain IC₅₀ values.” for “calculated.”

[15] = molecular target: T1, human TIGIT expressed on cells; experiment: flow cytometry, competition with human CD155-mouse IgG2a Fc (2 ug/mL) on CHO-huTIGIT cells; remark: listed apart in the source
Procedure: as §1, with “antibody was” for “monoclonal antibodies were”

[16] = molecular target: T1, human TIGIT expressed on cells; experiment: flow cytometry, CHO-huTIGIT cells; remark: listed apart in the source
Excerpt: as §2, with “(CHO-huTIGITcells),” for “(CHO-huTIGIT cells),”

[17] = molecular target: T3, mouse TIGIT overexpressed on CHO cells; experiment: flow cytometry, CHO-muTIGIT cells; remark: listed apart in the source
Excerpt: as §2, with “(CHO-huTIGITcells),” for “(CHO-huTIGIT cells),”

T5 sequence (chain, as listed by the source): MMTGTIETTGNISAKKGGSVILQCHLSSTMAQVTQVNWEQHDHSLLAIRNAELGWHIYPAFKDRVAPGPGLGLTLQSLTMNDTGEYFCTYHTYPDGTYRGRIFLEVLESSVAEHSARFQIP
T6 sequence (A0A7N9I9V4 entry or part of it): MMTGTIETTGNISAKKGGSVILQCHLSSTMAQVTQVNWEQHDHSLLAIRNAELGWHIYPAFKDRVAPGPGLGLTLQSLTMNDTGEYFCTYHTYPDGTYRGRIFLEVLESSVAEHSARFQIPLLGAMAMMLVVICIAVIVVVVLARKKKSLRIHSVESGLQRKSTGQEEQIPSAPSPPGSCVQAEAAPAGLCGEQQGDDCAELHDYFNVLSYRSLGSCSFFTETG

Row | Binder | IC50 [1] [pM] | EC50 [2] [pM] | Kd (human TIGIT-his protein [3]) [pM] | Kd [4] [pM] | IC50 [5] [pM] | EC50 [6] [pM] | binding result [7] | EC50 [8] [pM] | EC50 [9] [pM] | binding result (mouse TIGIT-his protein) | EC50 [10] [pM] | EC50 [11] [pM] | Kd (human TIGIT-his protein [12]) [pM] | Kd [13] [pM] | IC50 [14] [pM] | IC50 [15] [pM] | EC50 [16] [pM] | EC50 [17] [pM]
1 | anti-TIGIT monoclonal antibody 55812-G1 (antibody, human IgG1, V domains shown, Wild-type human IgG1 heavy chain constant region, human kappa light chain constant region; HEK293) VH: QVQLVQSGAEVKKPGASVKVSCKASGYAFTGYYMHWVRQAPGQGLEWMGSIIPFSGEANYAQKFQGRVTMTRDTSISTAYMELSRLRSDDTAVYYCARGPGSLDRLWYYYYGMDVWGQGTTVTVSS VL: not shown | 356 | 658 | 3500 | 24100 | 360 | 1120 | no binding | 660 | 1130 | no binding (tested: 100 nM) | 51.8 |  |  |  |  |  |  | 
2 | anti-TIGIT monoclonal antibody 55812-G1LALA (antibody, human IgG1, V domains shown, Human IgG1 heavy chain constant region modified by L234A, L235A; human kappa light chain constant region; HEK293) VH: QVQLVQSGAEVKKPGASVKVSCKASGYAFTGYYMHWVRQAPGQGLEWMGSIIPFSGEANYAQKFQGRVTMTRDTSISTAYMELSRLRSDDTAVYYCARGPGSLDRLWYYYYGMDVWGQGTTVTVSS VL: not shown | 319 | 698 | 3400 | 22100 | 320 | 1280 | no binding | 700 | 1280 | no binding (tested: 100 nM) | 57 |  |  |  |  |  |  | 
3 | anti-TIGIT monoclonal antibody ADI-55796 (antibody, V domains shown) VH: QLQLQESGPGLVKPAETLSLTCTVSGGSISSYDHYWTWIRQPPGKGLEWIGTVYYSGSTFHNPSLKSRVTIPVDTSKNQFSLKLSSVTAADTAVYYCARVGPDVSHPPFDYWGQGTLVTVSS VL: not shown |  |  |  |  |  |  |  |  |  |  |  | 1000 | 322 | 3120 | 889 | 425 | 1430 | 2520
